How the values were obtained:
hen egg-white lysozyme [1] = biological target: T1, hen egg-white lysozyme (hen (egg-white), UniProt P00698 19-147); assay: SPR
hen egg-white lysozyme [2] = biological target: T1, hen egg-white lysozyme

T1 sequence (P00698 19-147): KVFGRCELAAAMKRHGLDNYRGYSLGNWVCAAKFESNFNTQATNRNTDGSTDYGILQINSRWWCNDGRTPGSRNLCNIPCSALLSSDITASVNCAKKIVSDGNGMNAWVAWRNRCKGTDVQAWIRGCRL

Row | Binder | koff (hen egg-white lysozyme [1]) | Kd (hen egg-white lysozyme [2])
1 | OBody AM1L200 (designed binder) VYPKKTHWTAEITPNLHGTEVVVAGWVAHLGDYGRVMIVKVSDREGGAAVPVYLERGKTPDHLFKVFAELSREDVVVIKGIVEASKQYGSDTGVEIFPSEIWILNKAKPLPID | – | 1200 nM
2 | OBody AM1L10 (designed binder) AMGSVYPKKTHWTAEITPNLHGTEVVVAGWVASLGDYGRVKIVKVSDREGGAAVSVYLEYGKTPDHLFKVFAELSREDVVVIKGIVEASKAAADMHNGVEIFPSEIWILNKAK | – | 4600 nM

Other lines, results leading:

Row | koff (hen egg-white lysozyme [1]) | Kd (hen egg-white lysozyme [2]) | Binder
3 | 0.0256 s⁻¹ | – | OBody AM3L15 (designed binder) VSPKKTHWTAEITPNLHGSEVVVAGWVAHLGDYGRVKIVKVSDREGGAAVPVYLERGKTPDHLFKVFAELSREDVVVIKGIVEAGWPVALDTGVEIFPSEIWILNKAKPLPID
4 | 0.00249 s⁻¹ | – | OBody AM3L09 (designed binder) VSPKKTHWTAEITPNLHGSEVVVAGWVAHLGDYGRVKIVKVSDREGGAAVPVYLERGKTPDHLFKVFAELSREDVVVIKGIVEATTVTRWDTGVEIFPSEIWILNKAKPLPID
